{
  "source": "paper PMC2871789",
  "assay_in_all_cases": "EMSA",
  "key": {"[1]": {"molecular_target": "T1, RelB;RelG (Mycobacterium tuberculosis H37Rv;Mycobacterium tuberculosis H37Rv) (UniProt O50462+O33348)", "T1 sequence 1": "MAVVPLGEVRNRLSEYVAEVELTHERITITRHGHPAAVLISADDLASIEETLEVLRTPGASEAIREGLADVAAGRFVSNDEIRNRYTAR", "T1 sequence 2": "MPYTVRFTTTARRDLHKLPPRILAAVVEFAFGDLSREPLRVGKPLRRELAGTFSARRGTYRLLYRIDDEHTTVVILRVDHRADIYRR"}, "[2]": {"molecular_target": "RelB;RelK (Mycobacterium tuberculosis H37Rv;Mycobacterium tuberculosis H37Rv) (UniProt O50462+P9WF09)", "sequence (P9WF09 whole entry, one chain of several)": "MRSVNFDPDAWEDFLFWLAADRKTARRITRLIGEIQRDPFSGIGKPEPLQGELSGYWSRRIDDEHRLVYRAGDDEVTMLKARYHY"}, "[3]": {"molecular_target": "RelK (Mycobacterium tuberculosis H37Rv) (UniProt P9WF09)", "sequence (P9WF09 whole entry)": "as the sequence (P9WF09 whole entry, one chain of several) above"}, "[4]": {"molecular_target": "T2, RelB;RelE (Mycobacterium tuberculosis H37Rv;Mycobacterium tuberculosis H37Rv) (UniProt O50462+O50461)", "T2 sequence 1": "T1 sequence 1", "T2 sequence 2": "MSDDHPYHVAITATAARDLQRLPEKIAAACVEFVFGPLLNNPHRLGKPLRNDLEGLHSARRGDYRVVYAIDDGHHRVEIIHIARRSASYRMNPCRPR"}, "[5]": {"molecular_target": "T3, RelB (Mycobacterium tuberculosis H37Rv) (UniProt O50462)", "T3 sequence": "T1 sequence 1"}, "[6]": {"molecular_target": "T4, RelE (Mycobacterium tuberculosis H37Rv) (UniProt O50461)", "T4 sequence": "T2 sequence 2"}, "[7]": {"molecular_target": "T5, RelF;RelG (Mycobacterium tuberculosis H37Rv;Mycobacterium tuberculosis H37Rv) (UniProt O33347+O33348)", "T5 sequence 1": "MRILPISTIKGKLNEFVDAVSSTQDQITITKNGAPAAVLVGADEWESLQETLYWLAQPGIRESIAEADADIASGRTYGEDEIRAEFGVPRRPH", "T5 sequence 2": "T1 sequence 2"}, "[8]": {"molecular_target": "T6, RelF;RelE (Mycobacterium tuberculosis H37Rv;Mycobacterium tuberculosis H37Rv) (UniProt O33347+O50461)", "T6 sequence 1": "T5 sequence 1", "T6 sequence 2": "T2 sequence 2"}},
  "data": [
    {"sequence": "ACCGTCTAGATGACAAGTTGGCCGGGATCAAGCGAATCTCGCGCCGGGCGATGTCAGCCCCGTCGTCAGGCTCGTCGAAGGTGCACGCCGTCGAACAGCAGGAGATCCTCGACGAGGCGTTCGGCTGAGTTCGCTCAGCCGAACGCTCGAGGAGACATCAAACAGCGACGAGGCGTTCGGCTCGGTAAGCCGATGCTCGGCGTACAGGGTTTAGCCATACTTTTAGCTACAATCGCGGTTATGGCTGTTGTCCCACTGGGTATA (double strand) [1247p]", "values": [
      {"measurement": "binding", "setting": "[1]", "result": "binds"},
      {"measurement": "binding", "setting": "[2]", "result": "binds"},
      {"measurement": "binding", "setting": "[3]", "result": "no binding"},
      {"measurement": "binding", "setting": "[4]", "result": "binds"},
      {"measurement": "binding", "setting": "[5]", "result": "no binding"},
      {"measurement": "binding", "setting": "[6]", "result": "no binding"}
    ]},
    {"sequence": "ATCTTCTAGAACACACCGAGACCGAACCGTTACGCCGAGACTAGGTCGCGAATGGAACACCACCGCGAAAATCGTGGCCAGAAATCGCAACCACGTTACGCTCGCGACCGCTCAATCGAGCAAGGCGCCGACCGCAAGCACCAGCAAACCTGAGACGCCGCGCACAAAGTGCGAAACCACTGGAAGGTGAGCCCTAATTTAGGGCTGAGCAGGACCTGTATAACGGCCTAGTATGGCGGTATGCGGATACTGCCGATTTCTATA (double strand) [2865p]", "values": [
      {"measurement": "binding", "setting": "[7]", "result": "binds"},
      {"measurement": "binding", "setting": "[8]", "result": "binds"}
    ]},
    {"sequence": "GGCGTTCGGCTCGGTAAGCCGATGCTCGGCGTACAGGGTTTAGCCATACTTTTAGCTACAATCGCGGTTATGGCTGTTGTCCCACTGGGTATA (double strand) [1247p3]", "values": [
      {"measurement": "binding", "setting": "[4]", "result": "binds"}
    ]},
    {"sequence": "TCCGAACGCCTCGTCGCTGTTTGATGTCTCCTCGAGCGTTCGGCTGAGCGAACTCAGCCGAACGCCTCGTCGAGGATCTCCTGCTGTTCGACGGCGTGCACCTTCGACGAGCCTGACGACGGGGCTGACATCGCCCGGCGCGAGATTCGCTTGATCCCGGCCAACTTGTCATCTAGACGGT (double strand) [1247p5]", "values": [
      {"measurement": "binding", "setting": "[4]", "result": "no binding"}
    ]}
  ]
}
